Measurements as given in patent US20160251438A1 (LUDWIG INSTITUTE FOR CANCER RESEARCH, published 2016).

Experiments:
[1] = target: GARP R163E/T165A / TGF-β1 complex (human, UniProt Q14392 20-662; P01137 30-390); assay: flow cytometry on transfected 293T cells, 5 ug/ml; grade of Loss of binding read by footnote 2 (error bar crosses the 50% threshold)
Description: Resolution of the crystal structure of MHG-8 Fab/GARP/TGF-β1 complexes and analysis with the CONTACT software allowed the identification of 22 amino-acids in GARP, 8 amino-acids in LAP and 6 amino-acids in mature TGF-β1 that are located less than 5 Å away from an amino-acid of the light or heavy chain of the MHG-8 Fab (Tables 7a, b and c, and Table 8). Directed mutagenesis was used to construct plasmids encoding HA-tagged forms of GARP or TGF-β1 that are mutated at one, two, or three of these 36 positions (all mutations constructed are indicated in Table 8). […] Antibodies were used at a saturating concentration of 5 μg/ml for labeling. Binding of each antibody to a given mutant GARP/TGF-β1 complex was compared to their binding to wild type (WT) complexes, by determining an I_{m/wt} value (i.e. intensity of binding to mutant by comparison to WT). This value was calculated as follows: I_{m/wt} of antibody X=[Geom on mutant−Geom on control]/[Geom on WT−Geom on control]
The level of residual binding of anti-GARP or anti-LAP antibodies to each mutant was then calculated by comparison to WT, taking into account the expression levels of mutant and WT forms as measured with anti-HA antibodies. Residual binding was calculated as follows: Residual binding by an anti-GARP or anti-LAP antibody=[I_{m/wt} with anti-GARP or anti-LAP antibody]/[I_{m/wt} with anti-HA antibody]

[2] = target: GARP / TGF-β1 K338E complex (human, UniProt Q14392 20-662; P01137 30-390); assay: FACS titration on transfected 293T; EC50 mutant / EC50 WT [cont.) B]
Protocol: (§1) Intensities of staining at each concentration of antibody relative to the maximal intensity measured at 5 μg/ml were determined as follows:
(§2) The relative staining intensities were plotted according to the concentration of antibody used for staining, and a non-linear regression analysis was used with the Prism software to determine an EC₅₀ value for binding of the antibody to the WT and to each of the various mutant GARP/TGF-β1 complexes. If the ratio between the EC₅₀ measured on the mutant and the EC₅₀ measured on the WT was >2, the mutation was considered to induce a reduced avidity for binding by the antibody. The ratio of EC₅₀ (mutant vs WT) for MHG-8 and LHG-10 are indicated below each mutation on FIG. 19, parts A and B, respectively.

[3] = target: GARP T165A / TGF-β1 complex (human, UniProt Q14392 20-662; P01137 30-390); assay: as above
Protocol: as §1, §2

[4] = target: GARP E189A / TGF-β1 complex (human, UniProt Q14392 20-662; P01137 30-390); assay: as above
Protocol: as §1, §2

[5] = target: GARP Y137H / TGF-β1 complex (human, UniProt Q14392 20-662; P01137 30-390); assay: as above
Protocol: as §1, §2

[6] = target: GARP R163E / TGF-β1 complex (human, UniProt Q14392 20-662; P01137 30-390); assay: as above
Protocol: as §1, §2

[7] = target: GARP / TGF-β1 S337A complex (human, UniProt Q14392 20-662; P01137 30-390); assay: as above
Protocol: as §1, §2

[8] = target: GARP T162D / TGF-β1 complex (human, UniProt Q14392 20-662; P01137 30-390); assay: as above
Protocol: as §1, §2

[9] = target: GARP L140K/E142L / TGF-β1 complex (human, UniProt Q14392 20-662; P01137 30-390); assay: as above
Protocol: as §1, §2

[10] = target: GARP G139N / TGF-β1 complex (human, UniProt Q14392 20-662; P01137 30-390); assay: as above
Protocol: as §1, §2

[11] = target: GARP R166M/H167E / TGF-β1 complex (human, UniProt Q14392 20-662; P01137 30-390); assay: as above
Protocol: as §1, §2

[12] = target: GARP / TGF-β1 Q269Y complex (human, UniProt Q14392 20-662; P01137 30-390); assay: as above
Protocol: as §1, §2

[13] = target: GARP M111T/A112G/T113M / TGF-β1 complex (human, UniProt Q14392 20-662; P01137 30-390); assay: as above
Protocol: as §1, §2

[14] = target: GARP / TGF-β1 H270Y complex (human, UniProt Q14392 20-662; P01137 30-390); assay: as above
Protocol: as §1, §2

[15] = target: GARP / TGF-β1 Y336A complex (human, UniProt Q14392 20-662; P01137 30-390); assay: as above
Protocol: as §1, §2

Chain of GARP G139N / TGF-β1 complex (Q14392 20-662 G139N limits assumed, chain 1 of 2): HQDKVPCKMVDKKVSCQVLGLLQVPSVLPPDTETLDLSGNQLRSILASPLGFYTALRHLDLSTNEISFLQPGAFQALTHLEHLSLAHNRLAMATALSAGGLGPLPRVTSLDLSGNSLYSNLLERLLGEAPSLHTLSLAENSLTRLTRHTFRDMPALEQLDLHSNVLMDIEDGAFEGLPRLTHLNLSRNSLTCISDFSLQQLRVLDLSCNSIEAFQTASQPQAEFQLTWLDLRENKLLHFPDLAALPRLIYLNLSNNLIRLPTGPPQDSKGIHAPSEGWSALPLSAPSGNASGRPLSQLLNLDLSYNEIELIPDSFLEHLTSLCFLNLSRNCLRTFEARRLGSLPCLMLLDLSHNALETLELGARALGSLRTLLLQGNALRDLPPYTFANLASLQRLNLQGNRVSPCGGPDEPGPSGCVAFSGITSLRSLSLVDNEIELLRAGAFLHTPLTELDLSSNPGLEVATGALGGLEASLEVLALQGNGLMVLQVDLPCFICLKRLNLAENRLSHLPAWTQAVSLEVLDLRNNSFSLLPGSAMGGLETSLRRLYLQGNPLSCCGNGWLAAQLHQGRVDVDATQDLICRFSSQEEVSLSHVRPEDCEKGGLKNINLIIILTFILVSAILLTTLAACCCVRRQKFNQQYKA
Chain of GARP G139N / TGF-β1 complex (P01137 30-390 limits assumed, chain 2 of 2): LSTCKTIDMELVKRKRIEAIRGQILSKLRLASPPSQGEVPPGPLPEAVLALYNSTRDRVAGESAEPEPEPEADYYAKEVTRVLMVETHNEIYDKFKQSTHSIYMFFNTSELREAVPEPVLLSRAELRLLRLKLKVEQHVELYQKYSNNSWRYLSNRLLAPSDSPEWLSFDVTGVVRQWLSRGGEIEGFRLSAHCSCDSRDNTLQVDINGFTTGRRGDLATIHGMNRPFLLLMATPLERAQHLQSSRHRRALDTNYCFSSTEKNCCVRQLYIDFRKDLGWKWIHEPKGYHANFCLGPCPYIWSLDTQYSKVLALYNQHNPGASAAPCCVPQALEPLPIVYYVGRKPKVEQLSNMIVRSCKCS
Chain of GARP M111T/A112G/T113M / TGF-β1 complex (Q14392 20-662 M111T/A112G/T113M limits assumed, chain 1 of 2): as the sequence (Q14392 20-662 G139N limits assumed, chain 1 of 2) above, with M92T, A93G, T94M, N120G counted along it
Chain of GARP M111T/A112G/T113M / TGF-β1 complex (P01137 30-390 limits assumed, chain 2 of 2): as the sequence (P01137 30-390 limits assumed, chain 2 of 2) above
Chain of GARP T165A / TGF-β1 complex (Q14392 20-662 T165A limits assumed, chain 1 of 2): as the sequence (Q14392 20-662 G139N limits assumed, chain 1 of 2) above, with N120G, T146A counted along it
Chain of GARP T165A / TGF-β1 complex (P01137 30-390 limits assumed, chain 2 of 2): as the sequence (P01137 30-390 limits assumed, chain 2 of 2) above
Chain of GARP E189A / TGF-β1 complex (Q14392 20-662 E189A limits assumed, chain 1 of 2): as the sequence (Q14392 20-662 G139N limits assumed, chain 1 of 2) above, with N120G, E170A counted along it
Chain of GARP E189A / TGF-β1 complex (P01137 30-390 limits assumed, chain 2 of 2): as the sequence (P01137 30-390 limits assumed, chain 2 of 2) above

B1: LHG-10 (antibody, human IgG1, V domains shown)
VH: EVQLVQPGAELRNSGASVKVSCKASGYRFTSYYIDWVRQAPGQGLEWMGRIDPEDGGTKYAQKFQGRVTFTADTSTSTAYVELSSLRSEDTAVYYCARNEWETVVVGDLMYEYEYWGQGTQVTVSS
VL: DIQMTQSPTSLSASLGDRVTITCQASQSISSYLAWYQQKPGQAPKLLIYGASRLQTGVPSRFSGSGSGTSFTLTISGLEAEDAGTYYCQQYDSLPVTFGQGTKVELK
notes: llama-derived V regions in a full human IgG1
- residual binding on mutant by comparison to WT [1]: ≥ 50%
- Ratio of EC50 (mutant / wt) [2]: 7.2
- Ratio of EC50 (mutant / wt) [3]: 1
- Ratio of EC50 (mutant / wt) [4]: 0.8
- Ratio of EC50 (mutant / wt) [5]: 0.6
- Ratio of EC50 (mutant / wt) [6]: 4.1
- Ratio of EC50 (mutant / wt) [7]: 1.4
- Ratio of EC50 (mutant / wt) [8]: 2.5
- Ratio of EC50 (mutant / wt) [9]: 0.7
- Ratio of EC50 (mutant / wt) [10]: 1.2
- Ratio of EC50 (mutant / wt) [11]: 1.5
- Ratio of EC50 (mutant / wt) [12]: 0.8
- Ratio of EC50 (mutant / wt) [13]: 1.2
- Ratio of EC50 (mutant / wt) [14]: 0.7
- Ratio of EC50 (mutant / wt) [15]: 1.9
